Experimental data taken from patent US20240254182A1 (PROVINCIAL HEALTH SERVICES AUTHORITY, published 2024).

Experiments:
[1] = molecular target: T1, design 34 G-CSFR(Ig-CRH)E, tag cleaved (human, UniProt Q99062 26-331); experiment: SPR, WT G-CSF against design 34 G-CSFR(Ig-CRH)E; steady state derived affinity constant
T1 construct: also called Design 34 G-CSFR(Ig-CRH)E mutant
T1 chain: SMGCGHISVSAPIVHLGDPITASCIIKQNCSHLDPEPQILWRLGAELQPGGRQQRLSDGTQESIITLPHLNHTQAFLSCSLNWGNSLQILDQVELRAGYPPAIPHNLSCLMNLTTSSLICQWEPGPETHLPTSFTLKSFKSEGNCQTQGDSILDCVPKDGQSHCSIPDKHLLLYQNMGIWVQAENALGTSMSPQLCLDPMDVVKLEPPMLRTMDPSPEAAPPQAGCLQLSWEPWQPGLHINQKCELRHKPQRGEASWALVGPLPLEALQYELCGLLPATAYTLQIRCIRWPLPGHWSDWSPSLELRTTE

[2] = molecular target: T2, design 35 G-CSFR(Ig-CRH)E, tag cleaved (human, UniProt Q99062 26-331); experiment: SPR, WT G-CSF against design 35 G-CSFR(Ig-CRH)E, single-cycle kinetics
T2 chain: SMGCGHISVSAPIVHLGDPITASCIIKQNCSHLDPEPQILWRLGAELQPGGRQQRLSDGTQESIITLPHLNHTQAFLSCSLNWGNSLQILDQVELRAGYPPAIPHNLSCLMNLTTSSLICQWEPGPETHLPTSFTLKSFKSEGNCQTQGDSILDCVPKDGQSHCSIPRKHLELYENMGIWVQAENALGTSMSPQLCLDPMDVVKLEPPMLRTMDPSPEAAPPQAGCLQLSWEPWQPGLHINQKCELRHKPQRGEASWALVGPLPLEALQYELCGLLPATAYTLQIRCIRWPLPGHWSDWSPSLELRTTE

[3] = molecular target: T3, design 30 G-CSFR(Ig-CRH)E, tag cleaved (human, UniProt Q99062 26-331); experiment: SPR, WT G-CSF against design 30 G-CSFR(Ig-CRH)E, single-cycle kinetics
T3 construct: also called Design 30 G-CSFR(Ig-CRH)E mutant
T3 chain: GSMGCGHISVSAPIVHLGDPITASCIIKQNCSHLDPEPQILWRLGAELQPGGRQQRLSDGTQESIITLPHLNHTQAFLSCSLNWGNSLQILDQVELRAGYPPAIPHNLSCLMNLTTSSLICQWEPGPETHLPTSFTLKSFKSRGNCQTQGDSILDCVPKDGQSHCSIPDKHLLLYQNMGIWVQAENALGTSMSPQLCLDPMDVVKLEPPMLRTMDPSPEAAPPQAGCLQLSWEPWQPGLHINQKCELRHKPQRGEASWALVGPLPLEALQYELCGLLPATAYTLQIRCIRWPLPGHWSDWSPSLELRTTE

[4] = molecular target: T4, design 304 G-CSFR(Ig-CRH)E, tag cleaved (human, UniProt Q99062 26-331); experiment: SPR, G-CSFRE amine-coupled, G-CSFE injected, single-cycle kinetics
T4 chain: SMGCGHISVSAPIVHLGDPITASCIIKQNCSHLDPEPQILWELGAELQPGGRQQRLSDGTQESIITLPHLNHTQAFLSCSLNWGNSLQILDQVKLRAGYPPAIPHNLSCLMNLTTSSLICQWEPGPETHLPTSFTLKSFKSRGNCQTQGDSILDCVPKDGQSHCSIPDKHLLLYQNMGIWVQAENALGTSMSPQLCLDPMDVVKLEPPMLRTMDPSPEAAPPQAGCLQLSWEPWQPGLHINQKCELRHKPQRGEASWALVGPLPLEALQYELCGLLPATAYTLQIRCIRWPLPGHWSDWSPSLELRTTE
Description: (§1) The SPR binding assays were carried out on a Biacore T200 instrument (GE Healthcare, Mississauga, ON, Canada) with PBS-T (PBS+0.05% (v/v) Tween 20) running buffer at a temperature of 25° C. CM5 Series S sensor chip, Biacore amine coupling kit (NHS, EDC and 1 M ethanolamine), and 10 mM sodium acetate buffers were all purchased from GE Healthcare. PBS running buffer with 0.05% Tween20 (PBS-T) was purchased from Teknova Inc. (Hollister, CA). Designs were assessed in three different immobilization orientations.
(§2) To determine binding affinity of G-CSFE to G-CSFRE the G-CSFRE mutant was captured by standard amine coupling as described by the manufacturer (GE LifeSciences). Briefly, immediately after EDC/NHS activation, a 5 μg/mL solution of G-CSFRE in 10 mM NaOAc, pH 5.0, was injected at a flow rate of 5 μL/min until a receptor density of ˜700-900 RU was reached. The remaining active groups were quenched by a 420 s injection of 1 M ethanolamine hydrochloride-NaOH pH 8.5 at 10 μL/min. Using single-cycle kinetics, six concentrations of a two-fold dilution series of the corresponding G-CSFE mutant starting at 200 nM with a blank buffer control were sequentially injected at 25 μL/min for 300 s with a 1800 s dissociation phase, resulting in a set of sensorgrams with a buffer blank reference. The same sample titration was also performed on a reference cell with no variants captured. The chip was regenerated to prepare for the next injection cycle by one pulse of 10 mM glycine/HCl, pH 2.0, for 30 s at 30 μL/min.
(§3) Double-referenced sensorgrams from duplicate or triplicate repeat injections were analyzed using Biacore™ T200 Evaluation Software v3.0 and fit to the 1:1 Langmuir binding model.

[5] = molecular target: T5, WT G-CSFR(Ig-CRH), purified, tag cleaved (human, UniProt Q99062 26-331); experiment: SPR (Biacore T200), WT receptor amine-coupled, cytokine injected
T5 construct: also called G-CSFRWT; wild type G-CSFR(Ig-CRH)
T5 chain: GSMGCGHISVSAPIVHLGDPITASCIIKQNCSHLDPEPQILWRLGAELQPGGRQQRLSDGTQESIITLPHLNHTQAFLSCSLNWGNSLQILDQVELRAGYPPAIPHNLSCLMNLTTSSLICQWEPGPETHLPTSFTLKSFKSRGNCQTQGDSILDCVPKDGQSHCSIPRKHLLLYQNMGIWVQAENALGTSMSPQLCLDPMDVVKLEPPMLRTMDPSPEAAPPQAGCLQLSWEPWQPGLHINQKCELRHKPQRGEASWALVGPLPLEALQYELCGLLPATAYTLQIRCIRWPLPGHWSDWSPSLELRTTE
Description: as §1
(§4) To assess binding affinity of G-CSFE to G-CSFRWT, recombinant G-CSFRWT purified as described in Example 5 was captured as described above in this Example. Using single-cycle kinetics, six concentrations of a two-fold dilution series of each G-CSFE mutant starting at […] with a blank buffer control were sequentially injected as described above. The same sample titration was also performed on a reference cell with no variants captured. The G-CSFRWT surface was regenerated as described above.
as §3

[6] = molecular target: T1, design 34 G-CSFR(Ig-CRH)E, tag cleaved; experiment: SPR, G-CSFRE amine-coupled, G-CSFE injected, single-cycle kinetics
Description: as §1, §2, §3

[7] = molecular target: T5, WT G-CSFR(Ig-CRH), purified, tag cleaved; experiment: SPR, WT G-CSFR(Ig-CRH) amine-coupled, G-CSFE injected, single-cycle kinetics
Description: as §1, §4

[8] = molecular target: T6, design 307 G-CSFR(Ig-CRH)E, tag cleaved (human, UniProt Q99062 26-331); experiment: SPR, G-CSFRE amine-coupled, G-CSFE injected; steady state derived affinity constant
T6 chain: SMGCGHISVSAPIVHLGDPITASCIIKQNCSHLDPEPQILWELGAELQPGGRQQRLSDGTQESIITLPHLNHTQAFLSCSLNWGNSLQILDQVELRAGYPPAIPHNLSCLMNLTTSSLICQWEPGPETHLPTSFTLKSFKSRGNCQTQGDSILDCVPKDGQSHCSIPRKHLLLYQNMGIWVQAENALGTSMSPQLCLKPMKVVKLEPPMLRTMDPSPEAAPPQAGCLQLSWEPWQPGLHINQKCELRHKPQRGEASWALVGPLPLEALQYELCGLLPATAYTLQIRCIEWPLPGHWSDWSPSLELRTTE
Description: as §2, §3
Kinetic-derived affinity constants (KD) where obtained by fitting the association and dissociation phases of the curves. The KD of WT G-CSF for WT G-CSFR(Ig-CRH) ranged between 1.8-2.5E-9. For the cases in which the kinetic parameters could not be fit an attempt was made to derive a steady state affinity constant. In those cases, the KD fold change was calculated from the steady state derived KD for the WT G-CSF:WT G-CSFR(Ig-CRH) pair and is indicated in Table 7.

[9] = molecular target: T2, design 35 G-CSFR(Ig-CRH)E, tag cleaved; experiment: SPR, G-CSFRE amine-coupled, G-CSFE injected, single-cycle kinetics
Description: as §1, §2, §3

[10] = molecular target: T3, design 30 G-CSFR(Ig-CRH)E, tag cleaved; experiment: as above
Description: as §1, §2, §3

B1: WT G-CSF, purified from insect cells, tag cleaved (ligand)
chain: TPLGPASSLPQSFLLKCLEQVRKIQGDGAALQEKLCATYKLCHPEELVLLGHSLGIPWAPLSSCPSQALQLAGCLSQLHSGLFLYQGLLQALEGISPELGPTLDTLQLDVADFATTIWQQMEELGMAPALQPTQGAMPAFASAFQRRAGGVLVASHLQSFLEVSYRVLRHLAQAAAENLYFQ
notes: protein of the SPR; also called G-CSFWT; wild type G-CSF
- KD fold change (against WT:WT) [1]: 4260 fold
- KD fold change (against WT:WT) [2]: 19 fold
- KD fold change (against WT:WT) [3]: 774 fold

B2: design 304 G-CSFE, tag cleaved (ligand)
chain: TPLGPASSLPQSFLLKCLEQVRKIQGDGAALQEKLCATYKLCHPERLVLLGHSLGIPWAPLSSCPSQALQLAGCLSQLHSGLFLYQGLLQALEGISPELGPTLDTLQKDVARFATTIWQQMEELGMAPALQPTQGAMPAFASAFQREAGGVLVASHLQSFLEVSYRVLRHLAQAAAENLYFQ
- KD fold change (against WT:WT) [4]: 6.5 fold
- binding result [5]: no binding

B3: design 34 G-CSFE, tag cleaved (ligand)
chain: TPLGPASSLPQSFLLKCLEQVRKIQGDGAALQEKLCATYKLCHPEELVLLGHSLGIPWAPLSSCPSQALQLAGCLSQLHSGLFLYQGLLQALEGISPELGPTLDTLQKDVARFATTIWQQMRRLGMAPALQPTQGAMPAFASAFQRRAGGVLVASHLQSFLEVSYRVLRHLAQAAAENLYFQ
notes: also called design 34 G-CSFE mutant
- KD fold change (against WT:WT) [6]: 5 fold
- KD fold change (against WT:WT) [7]: 33 fold

B4: design 307 G-CSFE, tag cleaved (ligand)
chain: TPLGPASSLPQEFLLDCLKQVRKIQGDGAALQEKLCATYKLCHPERLVLLGHSLGIPWAPLSSCPSQALQLAGCLSQLHSGLFLYQGLLQALEGISPELGPTLDTLQLDVADFATTIWQQMEELGMAPALQPTQGAMPAFASAFQRRAGGVLVASHLQSFLEVSYRVLRHLAQAAAENLYFQ
- KD fold change (against WT:WT) [8]: 0.6 fold
- binding result [5]: no binding

B5: design 35 G-CSFE, tag cleaved (ligand)
chain: TPLGPASSLPQSFLLKCLEQVRKIQGDGAALQEKLCATYKLCHPEELVLLGHSLGIPWAPLSSCPSQALQLAGCLSQLHSGLFLYQGLLQALEGISPELGPTLDTLQLDVADFAKTIWQQMRRLGMAPALQPTQGAMPAFASAFQRRAGGVLVASHLQSFLEVSYRVLRHLAQAAAENLYFQ
notes: also called design 35 G-CSFE mutant
- KD fold change (against WT:WT) [9]: 3.3 fold
- KD fold change (against WT:WT) [7]: 5 fold

B6: design 30 G-CSFE, tag cleaved (ligand)
chain: TPLGPASSLPQSFLLKCLEQVRKIQGDGAALQEKLCATYKLCHPEELVLLGHSLGIPWAPLSSCPSQALQLAGCLSQLHSGLFLYQGLLQALEGISPELGPTLDTLQKDVARFATTIWQQMEELGMAPALQPTQGAMPAFASAFQRRAGGVLVASHLQSFLEVSYRVLRHLAQAAAENLYFQ
notes: also called design 30 G-CSFE mutant
- KD fold change (against WT:WT) [10]: 11 fold
- KD fold change (against WT:WT) [7]: 20 fold
